According to paper PMC9236607, “TUBA1A tubulinopathy mutants disrupt neuron morphogenesis and override XMAP215/Stu2 regulation of microtubule dynamics” (eLife, 2022):

Target: T1, purified budding yeast tubulin heterodimer, Tub1-WT (internal 6X-His) with Tub2 (S. cerevisiae, UniProt P09733 1-447; P02557 1-457)
T1 construct: alpha-tubulin Tub1, S. cerevisiae, from pRS426-GAL-Tub1-internal 6X-His (Johnson et al., 2011); beta-tubulin Tub2, S. cerevisiae, untagged, from pRS424-GAL-Tub2 (Johnson et al., 2011); also called WT tubulin; WT yeast tubulin; source: S. cerevisiae JEL1 (protease deficient), overexpressed from GAL plasmids, purified (His60 Ni column, HiTrap Q)
T1 sequence (P09733 whole entry, chain 1 of 2): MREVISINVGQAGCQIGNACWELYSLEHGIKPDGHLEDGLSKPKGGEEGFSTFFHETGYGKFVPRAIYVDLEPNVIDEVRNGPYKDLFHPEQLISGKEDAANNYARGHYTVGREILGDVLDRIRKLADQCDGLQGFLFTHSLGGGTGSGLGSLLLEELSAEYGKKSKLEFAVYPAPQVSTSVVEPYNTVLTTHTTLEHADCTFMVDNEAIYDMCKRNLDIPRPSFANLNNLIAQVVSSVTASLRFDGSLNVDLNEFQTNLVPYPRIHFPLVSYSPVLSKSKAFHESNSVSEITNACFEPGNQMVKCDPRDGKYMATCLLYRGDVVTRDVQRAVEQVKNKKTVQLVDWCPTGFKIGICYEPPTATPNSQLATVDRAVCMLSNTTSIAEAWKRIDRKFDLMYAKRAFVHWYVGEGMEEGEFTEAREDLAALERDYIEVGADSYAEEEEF
T1 sequence (P02557 whole entry, chain 2 of 2): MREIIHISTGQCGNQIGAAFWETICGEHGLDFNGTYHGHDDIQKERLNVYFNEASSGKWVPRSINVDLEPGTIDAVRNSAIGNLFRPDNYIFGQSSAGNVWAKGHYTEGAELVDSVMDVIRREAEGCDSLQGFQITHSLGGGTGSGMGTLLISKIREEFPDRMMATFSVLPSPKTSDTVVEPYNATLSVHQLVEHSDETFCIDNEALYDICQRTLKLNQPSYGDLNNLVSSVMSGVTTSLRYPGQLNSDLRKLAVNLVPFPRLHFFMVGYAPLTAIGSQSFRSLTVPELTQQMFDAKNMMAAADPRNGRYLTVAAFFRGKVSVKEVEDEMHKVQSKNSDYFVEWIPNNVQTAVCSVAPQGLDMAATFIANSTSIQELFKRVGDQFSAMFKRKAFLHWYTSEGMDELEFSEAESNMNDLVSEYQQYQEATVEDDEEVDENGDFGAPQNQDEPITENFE
Assay: pull-down; 100 nM tubulin mixed with 9.8 nM to 5 µM GST-TOG1/2 at 4°C for 15 min, then glutathione magnetic agarose beads, 4°C, 1 hr; beads equilibrated in 125 mM Tris-HCl, 150 mM KCl, 1 mM DTT, 1 mM EDTA, pH 7.4; unbound tubulin left in the supernatant read by western blot for α- and β-tubulin
Conditions: both partners purified

- binding result: binds
B1: GST-TOG1/2 (the two TOG domains of Stu2 fused to a GST tag, Stu2 1-590) (domain or fragment, S. cerevisiae, UniProt P46675 1-590, looked up)
chain: MSGEEEVDYTTLPLEERLTYKLWKARLEAYKELNQLFRNSVGDISRDDNIQIYWRDPTLFAQYITDSNVVAQEQAIVALNSLIDAFASSSLKNAHNITLISTWTPLLVEKGLTSSRATTKTQSMSCILSLCGLDTSITQSVELVIPFFEKKLPKLIAAAANCVYELMAAFGLTNVNVQTFLPELLKHVPQLAGHGDRNVRSQTMNLIVEIYKVTGNNSDLLEEILFKKLKPIQVKDLHKLFAKVGDEPSSSKMLFEWEKRELEKKRSQEEEARKRKSILSNDEGEYQIDKDGDTLMGMETDMPPSKQQSGVQIDTFSMLPEETILDKLPKDFQERITSSKWKDRVEALEEFWDSVLSQTKKLKSTSQNYSNLLGIYGHIIQKDANIQAVALAAQSVELICDKLKTPGFSKDYVSLVFTPLLDRTKEKKPSVIEAIRKALLTICKYYDPLASSGRNEDMLKDILEHMKHKTPQIRMECTQLFNASMKEEKDGYSTLQRYLKDEVVPIVIQIVNDTQPAIRTIGFESFAILIKIFGMNTFVKTLEHLDNLKRKKIEETVKTLPNFSIASGSTHSTIETNKQTGPMENKFLLK
notes: Stu2 (yeast homologue of XMAP215), S. cerevisiae, residues 1-590 with the TOG1 and TOG2 domains, from pGEX-6P-1 Stu2 1-590 (Widlund et al., 2012); also called Stu2 TOG1/2 domains; Stu2 TOG1/TOG2 domains; source: E. coli BL21, purified (GSTrap HP, eluted with reduced glutathione); not shown: GST, N-terminal, kept
